Laboratory results reported in publication PMC8880779.

Experiments:
[1] = molecular target: Human Aβ(1–42)-HiLyte™-Fluor555 (human) (UniProt P05067); test: other fluorescence titration; reversion of the fluorescence increase: 100 nM non-labelled Aβ(1–42) added after complex formation of 10 nM Aβ(1–42) HiLyte Fluor555 with 5 nM CaM; same buffer, 24–25 °C
[2] = molecular target: Human Aβ(1–42)-HiLyte™-Fluor555 (human) (UniProt P05067); test: other fluorescence titration; kinetics of the fluorescence increase of 10 nM Aβ(1–42) HiLyte Fluor555 after addition of 10 nM CaM (1:1 molar ratio); 50 mM Hepes, 100 mM KCl, 50 µM CaCl2, pH 7.05; 24–25 °C
[3] = molecular target: Human Aβ(1–42)-HiLyte™-Fluor555 (human) (UniProt P05067); test: other fluorescence titration; kinetics of the fluorescence increase of 10 nM Aβ(1–42) HiLyte Fluor555 after addition of 5 nM CaM (series 2.5, 5, 10 nM for the maximum change); 50 mM Hepes, 100 mM KCl, 50 µM CaCl2, pH 7.05; 24–25 °C; excitation 520 nm, emission 567 nm

- time needed for the decay to half the increase of fluorescence [1]: 900 s
- half-time of complex formation (10 nM CaM) [2]: 38 s
- rate constant of the kinetic process of complex formation (10 nM CaM) [2]: 0.018 s⁻¹
- stoichiometry N (Aβ(1–42) per CaM) [3]: 2
Substance: calmodulin (CaM) (from UniProt P62157 1-149) (natural protein; other documents disagree on this pair)
